B1: PBXIP1 (parent)
chain: LPVETLGPASRMDPESERALQAPH

Variants of: B1
Assay: protein stability index of a GFP-peptide fusion (GPS, HEK-293T) (PSI 1-6); higher = more stable
Conditions: c terminus: a fixed tail appended
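Note: lentivirally expressed fusions sorted by FACS into six bins by GFP to DsRed ratio, PSI derived from sequencing read proportions per bin multiplied by bin number.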

Variant	protein stability index
LPVETLGPASRMGPESERALQAPH [D13G]	4.41
LPVETLGPASRMLPESERALQAPH [D13L]	3.75
LPVETLGPASRMRPESERALQAPH [D13R]	2.62
LPVETLGPASRMPPESERALQAPH [D13P]	4.13
LPVETLGPASRMSPESERALQAPH [D13S]	3.88
LPVETLGPASRMIPESERALQAPH [D13I]	4.61
LPVETLGPASRMMPESERALQAPH [D13M]	4.11
LPVETLGPASRMCPESERALQAPH [D13C]	3.64
LPVETLGPASRMEPESERALQAPH [D13E]	4.66
LPVETLGPASRMHPESERALQAPH [D13H]	3.83
LPVETLGPASRMQPESERALQAPH [D13Q]	3.7
LPVETLGPASRMWPESERALQAPH [D13W]	3.71
LPVETLGPASRMKPESERALQAPH [D13K]	3.98
LPVETLGPASRMFPESERALQAPH [D13F]	4.48
LPVETLGPASRMNPESERALQAPH [D13N]	4.66
LPVETLGPASRMAPESERALQAPH [D13A]	4.61
LPVETLGPASRMTPESERALQAPH [D13T]	4.28
LPVETLGPASRMYPESERALQAPH [D13Y]	3.73
LPVETLGPASRMVPESERALQAPH [D13V]	4.38
LPVETLGPASRMDCESERALQAPH [P14C]	4.13
LPVETLGPASRMDAESERALQAPH [P14A]	4.62
LPVETLGPASRMDDESERALQAPH [P14D]	4.44
LPVETLGPASQMDPESERALQAPH [R11Q]	4.09
LPVETLGPASSMDPESERALQAPH [R11S]	4.01

Variant	protein stability index
LPVETLGPASMMDPESERALQAPH [R11M]	3.96
LPVETLGPASKMDPESERALQAPH [R11K]	4
LPVETLGPASCMDPESERALQAPH [R11C]	4.63
LPVETLGPASGMDPESERALQAPH [R11G]	3.95
LPVETLGPASVMDPESERALQAPH [R11V]	4.66
LPVETLGPASIMDPESERALQAPH [R11I]	2.99
LPVETLGPASPMDPESERALQAPH [R11P]	3.98
LPVETLGPASAMDPESERALQAPH [R11A]	4.18
LPVETLGPASTMDPESERALQAPH [R11T]	4.2
LPVETLGPASWMDPESERALQAPH [R11W]	3.7
LPVETLGPASLMDPESERALQAPH [R11L]	3.66
LPVETLGPASHMDPESERALQAPH [R11H]	3.71
LPVETLGPASFMDPESERALQAPH [R11F]	3.6
LPVETLGPASNMDPESERALQAPH [R11N]	4.4
LPVETLGPASEMDPESERALQAPH [R11E]	4.48
LPVETLGPASYMDPESERALQAPH [R11Y]	3.67
LPVETLNPASRMDPESERALQAPH [G7N]	5.24
LPVETLVPASRMDPESERALQAPH [G7V]	4.95
LPVETLTPASRMDPESERALQAPH [G7T]	5.37
LPVETLEPASRMDPESERALQAPH [G7E]	5.51
LPVETLAPASRMDPESERALQAPH [G7A]	5.51
LPVETLYPASRMDPESERALQAPH [G7Y]	4.63
LPVETLLPASRMDPESERALQAPH [G7L]	5.23
LPVETLPPASRMDPESERALQAPH [G7P]	4.61

Variant	protein stability index
LPVETLIPASRMDPESERALQAPH [G7I]	4.76
LPVETLCPASRMDPESERALQAPH [G7C]	5
LPVETLQPASRMDPESERALQAPH [G7Q]	4.99
LPVETLFPASRMDPESERALQAPH [G7F]	4.62
LPVETLRPASRMDPESERALQAPH [G7R]	5.12
LPVETLSPASRMDPESERALQAPH [G7S]	5.42
LPVETLDPASRMDPESERALQAPH [G7D]	5.29
LPVETLMPASRMDPESERALQAPH [G7M]	4.03
LPVETLWPASRMDPESERALQAPH [G7W]	4.63
LPVETLHPASRMDPESERALQAPH [G7H]	4.54
LPVETLKPASRMDPESERALQAPH [G7K]	5.55
LPVETLGPASRYDPESERALQAPH [M12Y]	4.09
LPVETLGPASRHDPESERALQAPH [M12H]	4.11
LPVETLGPASRNDPESERALQAPH [M12N]	4.41
LPVETLGPASRTDPESERALQAPH [M12T]	4.45
LPVETLGPASRIDPESERALQAPH [M12I]	4.5
LPVETLGPASRQDPESERALQAPH [M12Q]	4.89
LPVETLGPASRFDPESERALQAPH [M12F]	4.15
LPVETLGPASRVDPESERALQAPH [M12V]	4.34
LPVETLGPASRPDPESERALQAPH [M12P]	4.35
LPVETLGPASRWDPESERALQAPH [M12W]	4.17
LPVETLGPASRADPESERALQAPH [M12A]	4.31
LPVETLGPASRRDPESERALQAPH [M12R]	4.33
LPVETLGPASREDPESERALQAPH [M12E]	4.46

Variant	protein stability index
LPVETLGPASRDDPESERALQAPH [M12D]	4.95
LPVETLGPASRKDPESERALQAPH [M12K]	5.34
LPVETLGPASRLDPESERALQAPH [M12L]	4.04
LPVETLGPASRSDPESERALQAPH [M12S]	4.11
LPVETLGPASRCDPESERALQAPH [M12C]	4.32
LPVETLGPASRGDPESERALQAPH [M12G]	4.4
LPVEYLGPASRMDPESERALQAPH [T5Y]	4.93
LPVEDLGPASRMDPESERALQAPH [T5D]	5.49
LPVEGLGPASRMDPESERALQAPH [T5G]	5.33
LPVESLGPASRMDPESERALQAPH [T5S]	4.68
LPVECLGPASRMDPESERALQAPH [T5C]	4.89
LPVEILGPASRMDPESERALQAPH [T5I]	4.52
LPVEMLGPASRMDPESERALQAPH [T5M]	4.41
LPVEKLGPASRMDPESERALQAPH [T5K]	4.38
LPVELLGPASRMDPESERALQAPH [T5L]	3.9
LPVEPLGPASRMDPESERALQAPH [T5P]	4.95
LPVEQLGPASRMDPESERALQAPH [T5Q]	5.52
LPVEHLGPASRMDPESERALQAPH [T5H]	4.72
LPVENLGPASRMDPESERALQAPH [T5N]	5.12
LPVEWLGPASRMDPESERALQAPH [T5W]	4.65
LPVERLGPASRMDPESERALQAPH [T5R]	4.14
LPVEALGPASRMDPESERALQAPH [T5A]	5.26

— the supplement of paper PMC10567573
